The values that follow come from patent US20120328616A1 (Amgen, published 2012).

Changes are numbered by the printed parent chain.

T1: murine β-Klotho (murine, UniProt Q99N32 1-1043)
T1 construct: Full length (GenBank NP-112457), transiently expressed on HEK-293T cells; also called mu β-klotho; mouse β-Klotho
T1 sequence: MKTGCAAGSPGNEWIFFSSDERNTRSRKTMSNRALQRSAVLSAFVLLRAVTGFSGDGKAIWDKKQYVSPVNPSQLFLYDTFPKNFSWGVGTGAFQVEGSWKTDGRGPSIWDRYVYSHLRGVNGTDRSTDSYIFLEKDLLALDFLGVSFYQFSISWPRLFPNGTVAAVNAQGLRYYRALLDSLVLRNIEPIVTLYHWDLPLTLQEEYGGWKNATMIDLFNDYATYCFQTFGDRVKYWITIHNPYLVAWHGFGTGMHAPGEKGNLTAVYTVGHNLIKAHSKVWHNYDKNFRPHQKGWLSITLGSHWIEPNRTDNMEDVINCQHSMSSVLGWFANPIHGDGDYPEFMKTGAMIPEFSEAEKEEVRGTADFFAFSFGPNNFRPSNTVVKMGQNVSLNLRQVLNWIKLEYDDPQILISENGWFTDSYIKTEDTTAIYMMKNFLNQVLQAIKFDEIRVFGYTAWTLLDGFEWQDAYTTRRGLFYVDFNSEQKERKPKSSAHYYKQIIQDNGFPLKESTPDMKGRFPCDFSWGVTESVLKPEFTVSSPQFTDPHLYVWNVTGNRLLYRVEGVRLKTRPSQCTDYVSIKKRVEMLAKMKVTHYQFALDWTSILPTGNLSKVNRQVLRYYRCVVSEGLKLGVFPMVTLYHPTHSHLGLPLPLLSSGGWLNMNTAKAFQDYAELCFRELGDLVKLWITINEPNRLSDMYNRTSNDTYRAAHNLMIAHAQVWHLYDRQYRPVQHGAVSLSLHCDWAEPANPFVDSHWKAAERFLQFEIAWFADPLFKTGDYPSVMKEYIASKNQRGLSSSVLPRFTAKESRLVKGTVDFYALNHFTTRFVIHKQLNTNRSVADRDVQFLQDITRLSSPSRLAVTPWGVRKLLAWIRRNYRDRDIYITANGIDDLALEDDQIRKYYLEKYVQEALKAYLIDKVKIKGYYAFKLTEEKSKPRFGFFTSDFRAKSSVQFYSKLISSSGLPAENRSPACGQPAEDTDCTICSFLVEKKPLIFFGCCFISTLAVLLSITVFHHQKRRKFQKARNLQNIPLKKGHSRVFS

T2: huBeta_Klotho (1-301, 509-743, 967-1044) (muBeta KLOTHO 302-506, 742-964) (human; murine, UniProt Q86Z14 1-1044)
T2 construct: also called Chimera 14; Construct 14
T2 chain: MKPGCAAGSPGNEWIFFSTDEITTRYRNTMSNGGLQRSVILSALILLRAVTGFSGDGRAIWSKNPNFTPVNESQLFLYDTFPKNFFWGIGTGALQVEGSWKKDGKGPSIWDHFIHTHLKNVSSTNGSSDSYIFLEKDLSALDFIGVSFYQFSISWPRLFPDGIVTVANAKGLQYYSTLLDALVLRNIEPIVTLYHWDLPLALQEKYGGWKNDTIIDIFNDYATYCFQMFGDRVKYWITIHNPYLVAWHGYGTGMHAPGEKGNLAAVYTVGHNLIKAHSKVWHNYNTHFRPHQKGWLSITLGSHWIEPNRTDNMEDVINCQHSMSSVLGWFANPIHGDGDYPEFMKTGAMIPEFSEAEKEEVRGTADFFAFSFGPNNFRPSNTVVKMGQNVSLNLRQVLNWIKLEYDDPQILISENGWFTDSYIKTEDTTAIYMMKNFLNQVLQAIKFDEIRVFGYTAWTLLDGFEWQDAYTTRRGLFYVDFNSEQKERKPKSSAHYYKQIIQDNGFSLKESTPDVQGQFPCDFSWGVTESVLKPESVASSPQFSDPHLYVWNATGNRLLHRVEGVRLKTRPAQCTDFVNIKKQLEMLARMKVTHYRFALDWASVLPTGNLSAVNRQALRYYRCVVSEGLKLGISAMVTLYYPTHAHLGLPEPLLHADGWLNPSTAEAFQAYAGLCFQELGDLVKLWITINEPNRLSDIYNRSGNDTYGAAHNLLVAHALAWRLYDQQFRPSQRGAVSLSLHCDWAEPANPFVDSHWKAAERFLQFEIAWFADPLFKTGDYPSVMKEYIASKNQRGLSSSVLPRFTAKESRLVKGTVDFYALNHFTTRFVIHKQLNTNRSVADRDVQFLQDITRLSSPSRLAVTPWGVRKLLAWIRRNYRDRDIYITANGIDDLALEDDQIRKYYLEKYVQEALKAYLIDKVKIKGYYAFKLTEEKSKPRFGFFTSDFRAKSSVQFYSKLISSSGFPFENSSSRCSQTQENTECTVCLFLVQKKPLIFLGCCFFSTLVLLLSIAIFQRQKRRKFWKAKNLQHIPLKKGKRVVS

B1: 65C3.1 (antibody, V domains shown)
VH: QVQLQESGPGLVKPSETLSLTCTVSGGSISSYYWSWIRQPPGKGLEWIGYIYYTGSTNYNPSLKSRVTISVDTSKNQFSLKLSSVTAADTAVYYCAREYYYGSGSYYPWGQGTLVTVSS
VL: EMVMTQSPATLSVSPGERATLSCRASQSVSSQLAWYQEKPGRAPRLLIYGASNRAIDIPARLSGSGSGTEFTLTISSLQSEDFAVYYCQQYNNWPWTFGQGTKVEFKR
B2: 67F5.1 (antibody, V domains shown)
VH: B1 VH with Q5K, T54S, S56N
VL: EIVMTQSPATLSVSPGERVTLSCRASQSVSSNLAWYQQKPGQAPRLLIHGSSNRAIGIPARFSGSGSGTEFTLTISSLQSADFAVYNCQQYEIWPWTFGQGTKVEIKR
B3: 67C10.1 (antibody, V domains shown)
VH: EVQLVQSGAEVKKPGESLKISCQGSGYSFSSYWIGWVRQMPGKGLEWMGIIYPGDSDTRYSPSFQGQVTISADKSINTAYLQWSSLKASDTAIYYCARRASRGYRYGLAFAIWGQGTMVTVSS
VL: DFVMTQTPLSLPVTPGEPASISCRSSQSLLNSDDGNTYLDWYLQKPGQSPQLLIYTLSYRASGVPDRFSGSGSGTDFTLKISRVEAEDVGVYYCMQRIEFPITFGQGTRLEIKR
B4: 49G3.3 (antibody, V domains shown)
VH: QVTLKESGPVLVKPTETLTLTCTVSGFSLSNPRMGVSWIRQPPGKALEWLTHIFSNDEKSYSTSLKSRLTISKDTSKSQVVLSMTNMDPVDTATYYCVRVDTLNYHYYGMDVWGQGTTVTVSS
VL: DIQMTQSPSSLSASIGDRVTITCQASQGISNYLNWYQQKPGKAPKLLIYDASNLETGVPSRFSGSGSGTDFTFTISSLQPEDIATYYCHQYDDLPLTFGGGTKVEIRR
B5: 51E5.1 (antibody, V domains shown)
VH: QVQLQQWGAGLLKPSETLSLTCAVYGGSFSGYYWSWIRQPPGKGLEWIGELDHSGSINYNPSLKSRVTISVDTSKNQFSLKLTSVTAADTAVYYCARVLGSTLDYWGQGTLVTVSS
VL: DIQMTQSPSSLSASVGDRVTITCRASQDIRNDLGWYQQKPGKAPNRLIYAASSLQFGVPSRFSGSGSGTEFTLTISSLQPEDFATYYCLQHSSYPLTFGGGTRVEIKR
B6: 66G2.1 (antibody, V domains shown)
VH: QVQLVESGGGVVQPGRSLRLSCAASGFTFSSYGMHWVRQAPGKGLEWVAGISYDGSNKNYADSVKGRITISRDNPKNTLYLQMNSLRAEDTAVYYCATTVTKEDYYYYGMDVWGQGTTVTVSS
VL: B5 VL with D28G, N45K, S53N, F56S, E70K, S76N, H91L, S92N, S93G, R103K

For the first experiment, the target named is T3, huBeta_Klotho (1-507) (muBetaKLOTHO 506F-1045S) (human; murine, UniProt Q99N32 1-1043).
T3 construct: also called Chimera 2; Construct 2
Nature of the experiment: flow cytometry, transfected HEK-293T. On the technique in general: Flow cytometry measures light scatter and fluorescence of single cells or particles in a stream.
Regarding B1, the binding result is listed as “no binding”.

Consider B2, for which the binding result is “no binding”.

Turning to B3, the binding result is given as “no binding”.

Turning to B4, the binding result is on record as “binds”.

B5: the binding result was “no binding”.

In the case of B6, the binding result is listed as “no binding”.

Another experiment concerns the target T4, huBeta_Klotho (194-1044) (muBetaKLOTHO 1-L193) (murine; human, UniProt Q86Z14 1-1044).
T4 construct: also called Chimera 3; Construct 3
In words: flow cytometry, transfected HEK-293T.
Regarding B1, the binding result is on record as “binds”.

For the molecule B2, the binding result is “binds”.

Take B3: the binding result is “binds”.

B4: the binding result was “no binding”.

As for B5, the binding result was “binds”.

As to B6, the binding result is reported as “binds”.

A further experiment addresses T5, huBeta_Klotho(1-301, 509-1044) (muBetaKLOTHO S302-F506) (human; murine, UniProt Q86Z14 1-1044).
T5 construct: also called Chimera 6; Construct 6
Nature of the experiment: flow cytometry, transfected HEK-293T.
Turning to B1, the binding result was “binds”.

As to B2, the binding result is “binds”.

Turning to B3, the binding result is given as “binds”.

As for B4, the binding result was “no binding”.

For the molecule B5, the binding result was “binds”.

With B6, the binding result was “binds”.

The next experiment has as its target T6, huBeta_Klotho (1-521, 738-1044) (muBeta KLOTHO 520P-735A) (human; murine, UniProt Q86Z14 1-1044).
T6 construct: also called Chimera 9; Construct 9
Nature of the experiment: flow cytometry, transfected HEK-293T.
For B1, the binding result is “binds”.

As to B2, the binding result was “no binding”.

Turning to B3, the binding result is on record as “no binding”.

Turning to B4, the binding result is reported as “binds”.

B5: the binding result is given as “no binding”.

Regarding B6, the binding result was “no binding”.

Another experiment addresses T7, huBeta_Klotho (1-736, 967-1044) (muBeta KLOTHO 735A-963S) (human; murine, UniProt Q86Z14 1-1044).
T7 construct: also called Chimera 11; Construct 11
In words: flow cytometry, transfected HEK-293T.
With B1, the binding result is reported as “no binding”.

On to B2, for which the binding result was “no binding”.

For the molecule B3, the binding result is “no binding”.

With B4, the binding result was “binds”.

With B5, the binding result is “no binding”.

Turning to B6, the binding result is recorded as “no binding”.

The target in a further experiment is T8, huBeta_Klotho (82-1044) (muBeta KLOTHO 1-81F) (murine; human, UniProt Q86Z14 1-1044).
T8 construct: also called Chimera 12; Construct 12
In words: flow cytometry, transfected HEK-293T.
Regarding B1, the binding result is reported as “binds”.

In the case of B2, the binding result is listed as “binds”.

In the case of B3, the binding result was “binds”.

Turning to B4, the binding result is “no binding”.

For B5, the binding result was “binds”.

Turning to B6, the binding result is “binds”.

The next experiment addresses T1, murine β-Klotho. In words: flow cytometry, transfected HEK-293T.
As for B1, the binding result was “no binding”.

As to B2, the binding result is recorded as “no binding”.

With B3, the binding result is listed as “no binding”.

On to B4, for which the binding result is reported as “no binding”.

For B5, the binding result is “no binding”.

Regarding B6, the binding result was “no binding”.

For another experiment, the target named is T2, huBeta_Klotho (1-301, 509-743, …). Nature of the experiment: flow cytometry, transfected HEK-293T.
B1: the binding result is reported as “no binding”.

Take B2: the binding result is “no binding”.

In the case of B3, the binding result is “no binding”.

Turning to B4, the binding result is on record as “no binding”.

Turning to B5, the binding result is on record as “no binding”.

Turning to B6, the binding result is “no binding”.
